Results taken from patent US20260242735A1 (UNIVERSIT T BASEL, published 2026).

Legend:
Experiment in all cases: flow cytometry, mutant on cells, IgG
[1] = biological target: human CD33 P19K (human, UniProt P20138 18-364)
[2] = biological target: human CD33 P19W (human, UniProt P20138 18-364)
[3] = biological target: human CD33 N20G (human, UniProt P20138 18-364)
[4] = biological target: human CD33 N20L (human, UniProt P20138 18-364)
[5] = biological target: human CD33 N20P (human, UniProt P20138 18-364)
[6] = biological target: human CD33 N20Q (human, UniProt P20138 18-364)
[7] = biological target: human CD33 N20E (human, UniProt P20138 18-364)
[8] = biological target: human CD33 F21V (human, UniProt P20138 18-364)
human CD33 F21V, sequence (P20138 18-364 F21V limits assumed): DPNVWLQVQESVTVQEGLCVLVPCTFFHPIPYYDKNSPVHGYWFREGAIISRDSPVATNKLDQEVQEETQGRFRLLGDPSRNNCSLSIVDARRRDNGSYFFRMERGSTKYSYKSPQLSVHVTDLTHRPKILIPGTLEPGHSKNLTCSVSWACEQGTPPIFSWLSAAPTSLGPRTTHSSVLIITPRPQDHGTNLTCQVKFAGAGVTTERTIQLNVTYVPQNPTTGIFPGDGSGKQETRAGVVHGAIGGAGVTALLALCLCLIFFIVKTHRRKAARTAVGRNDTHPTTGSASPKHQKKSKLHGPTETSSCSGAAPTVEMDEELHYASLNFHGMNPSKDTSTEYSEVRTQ

[9] = biological target: human CD33 F21L (human, UniProt P20138 18-364)
[10] = biological target: human CD33 F21I (human, UniProt P20138 18-364)
[11] = biological target: human CD33 F21H (human, UniProt P20138 18-364)
human CD33 F21H, sequence (P20138 18-364 F21H limits assumed): as the sequence (P20138 18-364 F21V limits assumed) above, with V4H counted along it

[12] = biological target: human CD33 W22Y (human, UniProt P20138 18-364)
human CD33 W22Y, sequence (P20138 18-364 W22Y limits assumed): as the sequence (P20138 18-364 F21V limits assumed) above, with V4F, W5Y counted along it

[13] = biological target: human CD33 W22N (human, UniProt P20138 18-364)
[14] = biological target: human CD33 Q24S (human, UniProt P20138 18-364)
[15] = biological target: human CD33 Q24V (human, UniProt P20138 18-364)
human CD33 Q24V, sequence (P20138 18-364 Q24V limits assumed): as the sequence (P20138 18-364 F21V limits assumed) above, with V4F, Q7V counted along it

[16] = biological target: human CD33 Q24H (human, UniProt P20138 18-364)
human CD33 Q24H, sequence (P20138 18-364 Q24H limits assumed): as the sequence (P20138 18-364 F21V limits assumed) above, with V4F, Q7H counted along it

[17] = biological target: human CD33 Q24E (human, UniProt P20138 18-364)
[18] = biological target: human CD33 Q24R (human, UniProt P20138 18-364)
[19] = biological target: human CD33 V25S (human, UniProt P20138 18-364)
[20] = biological target: human CD33 V25I (human, UniProt P20138 18-364)
[21] = biological target: human CD33 V25L (human, UniProt P20138 18-364)
human CD33 V25L, sequence (P20138 18-364 V25L limits assumed): as the sequence (P20138 18-364 F21V limits assumed) above, with V4F, V8L counted along it

[22] = biological target: human CD33 T42N (human, UniProt P20138 18-364)
[23] = biological target: human CD33 F43L (human, UniProt P20138 18-364)
[24] = biological target: human CD33 F44S (human, UniProt P20138 18-364)
[25] = biological target: human CD33 D18R (human, UniProt P20138 19-364)
human CD33 D18R, sequence (P20138 18-364 D18R limits assumed): as the sequence (P20138 18-364 F21V limits assumed) above, with D1R, V4F counted along it

[26] = biological target: human CD33 F44I (human, UniProt P20138 18-364)
[27] = biological target: human CD33 F44L (human, UniProt P20138 18-364)
human CD33 F44L, sequence (P20138 18-364 F44L limits assumed): as the sequence (P20138 18-364 F21V limits assumed) above, with V4F, F27L counted along it

[28] = biological target: human CD33 F44P (human, UniProt P20138 18-364)
[29] = biological target: human CD33 F44H (human, UniProt P20138 18-364)
human CD33 F44H, sequence (P20138 18-364 F44H limits assumed): as the sequence (P20138 18-364 F21V limits assumed) above, with V4F, F27H counted along it

[30] = biological target: human CD33 F44D (human, UniProt P20138 18-364)
[31] = biological target: human CD33 F44T (human, UniProt P20138 18-364)
[32] = biological target: human CD33 P46L (human, UniProt P20138 18-364)
[33] = biological target: human CD33 P46F (human, UniProt P20138 18-364)
[34] = biological target: human CD33 P46H (human, UniProt P20138 18-364)
human CD33 P46H, sequence (P20138 18-364 P46H limits assumed): as the sequence (P20138 18-364 F21V limits assumed) above, with V4F, P29H counted along it

[35] = biological target: human CD33 I47G (human, UniProt P20138 18-364)
[36] = biological target: human CD33 P19L (human, UniProt P20138 18-364)
human CD33 P19L, sequence (P20138 18-364 P19L limits assumed): as the sequence (P20138 18-364 F21V limits assumed) above, with P2L, V4F counted along it

[37] = biological target: human CD33 I47V (human, UniProt P20138 18-364)

human CD33 P19K, sequence (P20138 18-364 P19K limits assumed): as the sequence (P20138 18-364 F21V limits assumed) above, with P2K, V4F counted along it
human CD33 N20L, sequence (P20138 18-364 N20L limits assumed): as the sequence (P20138 18-364 F21V limits assumed) above, with N3L, V4F counted along it
human CD33 P19W, sequence (P20138 18-364 P19W limits assumed): as the sequence (P20138 18-364 F21V limits assumed) above, with P2W, V4F counted along it

B1: Refmab #4 (antibody, human IgG1, V domains shown)
VH: QVQLVQSGAEVKKPGESVKVSCKASGYTFTNYGMNWVKQAPGQGLEWMGWINTYTGEPTYADKFQGRVTMTTDTSTSTAYMEIRNLGGDDTAVYYCARWSWSDGYYVYFDYWGQGTSVTVSS
VL: DIVMTQSPDSLTVSLGERTTINCKSSQSVLDSSTNKNSLAWYQQKPGQPPKLLLSWASTRESGIPDRFSGSGSGTDFTLTIDSPQPEDSATYYCQQSAHFPITFGQGTRLEIK
notes: Tested in IgG format; human IgG1 Fc silent (PG-LALA)
- Mean % WT Binding [1]: 92 % WT binding
- Mean % WT Binding [2]: 82.8 % WT binding
- Mean % WT Binding [3]: 103 % WT binding
- Mean % WT Binding [4]: 89.8 % WT binding
- Mean % WT Binding [5]: 98.5 % WT binding
- Mean % WT Binding [6]: 99.4 % WT binding
- Mean % WT Binding [7]: 100 % WT binding
- Mean % WT Binding [8]: 118 % WT binding
- Mean % WT Binding [9]: 114 % WT binding
- Mean % WT Binding [10]: 96.3 % WT binding
- Mean % WT Binding [11]: 123 % WT binding
- Mean % WT Binding [12]: 86.1 % WT binding
- Mean % WT Binding [13]: 100 % WT binding
- Mean % WT Binding [14]: 96.8 % WT binding
- Mean % WT Binding [15]: 81.5 % WT binding
- Mean % WT Binding [16]: 93.2 % WT binding
- Mean % WT Binding [17]: 69.7 % WT binding
- Mean % WT Binding [18]: 98.6 % WT binding
- Mean % WT Binding [19]: 106 % WT binding
- Mean % WT Binding [20]: 104 % WT binding
- Mean % WT Binding [21]: 95 % WT binding
- Mean % WT Binding [22]: 101 % WT binding
- Mean % WT Binding [23]: 100 % WT binding
- Mean % WT Binding [24]: 93.8 % WT binding
- Mean % WT Binding [25]: 100 % WT binding
- Mean % WT Binding [26]: 98.7 % WT binding
- Mean % WT Binding [27]: 100 % WT binding
- Mean % WT Binding [28]: 104 % WT binding
- Mean % WT Binding [29]: 84.9 % WT binding
- Mean % WT Binding [30]: 110 % WT binding
- Mean % WT Binding [31]: 97.1 % WT binding
- Mean % WT Binding [32]: 96.3 % WT binding
- Mean % WT Binding [33]: 42.4 % WT binding
- Mean % WT Binding [34]: 69.5 % WT binding
- Mean % WT Binding [35]: 72.5 % WT binding
- Mean % WT Binding [36]: 101 % WT binding
- Mean % WT Binding [37]: 99 % WT binding
